Laboratory results taken from publication doi:10.1101/2020.12.29.424711 (bioRxiv, 2020).

B1: ION_300 Fab (Fab, V domains shown)
VH: QVQLVQSGAEVKKPGESLKISCKGSGYSFTSYWIGWVRQMPGKGLEWMGIIYPGDSDTRYSPSFQGQVTISADKSISTAYLQWSSLKASDTAMYYCARHPSPYYYGSGSYSGGFDYWGQGTLVTVSS
VL: DIVMTQSPGTLSLSPGERATLSCRASQSVSSSYLAWYQQKPGQAPRLLIYGASTRATGIPARFSGSGSGTEFTLTISSLQSEDFAVYYCQQYDNWPLMHTFGQGTKLEIK
B2: ION_300 IgG1 (antibody, V domains shown)
VH: QVQLVQSGAEVKKPGESLKISCKGSGYSFTSYWIGWVRQMPGKGLEWMGIIYPGDSDTRYSPSFQGQVTISADKSISTAYLQWSSLKASDTAMYYCARHPSPYYYGSGSYSGGFDYWGQGTLVTVSS
VL: DIVMTQSPGTLSLSPGERATLSCRASQSVSSSYLAWYQQKPGQAPRLLIYGASTRATGIPARFSGSGSGTEFTLTISSLQSEDFAVYYCQQYDNWPLMHTFGQGTKLEIK
B3: ION_360 Fab (Fab, V domains shown)
VH: EVQLVQSGGGLVKPGGSLRLSCAASGITVSSNYMSWVRQAPGKGLEWVSVIYSGGSTYYADSVKGRFTISRDNSKNTLYLQMNSLRAEDTAVYYCARGEGGSIVGVTSDYWGQGTLVTVSS
VL: DIQMTQSPSSLSASVGDRVTITCRASQSISRYLNWYQQKPGKAPKLLIYAASSLQSGVPSRFSGSGSETEFTLTISSLHPDDFATYYCQQSYSTLPYTFGQGTKVEIK

Tests used:
[1] = biological target: SARS-CoV-2 receptor binding domain (RBD), as crystallised (SARS-CoV-2, UniProt P0DTC2); test: crystal structure
[2] = biological target: SARS-CoV-2 RBD, as used in Octet epitope binning and as SPR analyte (SARS-CoV-2, UniProt P0DTC2); test: BLI

Binder | binding result [1] | binding result [2]
B1 | binds | –
B2 | – | binds
B3 | binds | –
